Data on one sequence can be found in PMC9239096.

This series has as its system T1, KdpE-MBP (Sinorhizobium fredii CCBAU45436 (SF4)), ORF:2638478e.
T1 sequence: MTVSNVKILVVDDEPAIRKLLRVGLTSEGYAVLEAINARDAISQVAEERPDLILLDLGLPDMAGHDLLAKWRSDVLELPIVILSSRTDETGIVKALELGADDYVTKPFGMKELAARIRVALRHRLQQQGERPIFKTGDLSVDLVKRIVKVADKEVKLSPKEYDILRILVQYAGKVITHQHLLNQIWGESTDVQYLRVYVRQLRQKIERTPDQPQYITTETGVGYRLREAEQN
Put plainly: EMSA. The settings on record: 25 mM Tris-HCl pH 8.0, 0.5 mg/mL BSA, 0.1 mg/mL sonicated salmon sperm DNA, 5% glycerol, 0.05% DDM; 10 uL, 20 C, 30 min; 6% native PAGE. (In general: A gel shift assay detects complexes by their altered migration in electrophoresis.)

For the sequence “TCCTCCTGCGCCTCTCTCGAACCTTTATGCGGTTCGGAGCCATATTCCTGACAAGATCCATCCACCGCCGCGCCGAACTCGATCGTCGCGCCGGGATGCGCACATCGATCGCGATCACCTGCCGGGCGGCCCGGCGCTGCCTCCAGGTGACGCGCAGTCAGTAGAAACAACGCACAGGGATTACCGACATGGACATTGTCGTTCTCGCAATAGGCATCGTGTTCTTCGCCTTATCGTTTGCCTATGTCCGGGCGTGCAGCAACCTCTAATCGCGGAGCGGAAAGATG (double strand) [Probe1_kdpF]”, the binding result was “no binding”.
